# Data: US20200171068A1, “COMPOSITIONS COMPRISING APTAMERS AND NUCLEIC ACID PAYLOADS AND METHODS OF USING THE SAME” (Children's National Medical Center, priority 2017, published 2020)
# “Also recorded” adds a separate entry of the source.
# B1: human KIT aptamer: DNA aptamer against human KIT, SEQ ID NO:2, conjugated with biotin at 3′ for binding assay (nucleic acid)
# DNA: GAGGCATACCAGCTTATTCAAGGGGCCGGGGCAAGGGGGGGGTACCGTGGTAGGACATAGTAAGTGCAATCTGCGAA
# modifications: DNA, 3' {Biotin}, backbone not given here; further chemistry not fully specified
# Tested on: MDA-MB-231 cell line
# Experiment: Aptamer binding assay to MDA-MB-231 cells by flow cytometry
# Design: species or system human
# Details: biotin-conjugated aptamer
# Procedure: DNA sequences for anti-human KIT aptamer (21) and mouse c-Kit aptamers (22) conjugated with biotin at 3′ were functionalized by short denaturation-renaturation step (95° C. 10 min, 5 min snap-cooling on ice). These DNA sequences were 5′-[…] […]-3′ (SEQ ID NO: 2) for human KIT, 5′-[…]-3′ (SEQ ID NO:3) for mouse c-Kit. These activated aptamers were used for binding assay to the cell lines by flow cytometry. For chimera preparation, human KIT-aptamer or mouse c-Kit-aptamer miR-26a chimera was assembled by three compartments of DNA/RNA hybrid sequences. The sequences were 5′-[…] […]/C3 (SEQ ID NO:4) spacer/CCUAUUCUGG-3′(SEQ ID NO:5) for human KIT aptamer+the part of passenger sequence for miR-26a-5p, 5′-[…]/C3 (SEQ ID NO:6) spacer/CCUAUUCUGG-3′ (SEQ ID NO:7) for mouse cKit aptamer+the part of passenger sequence for miR-26a-5p, 5′-GUUACUUGCACG/TEG (triethylene glycol)-Cholesterol-3′ (SEQ ID NO:8) for the part of sequence for miR-26a-5p+cholesterol, and 5′-[…]-3′ (SEQ ID NO:9) for guide sequence for miR-26a-5p (RNA sequences were represented as italic). The guide sequence for scramble control was […] (SEQ ID NO:10). To protect the oligonucleotide sequences from nuclease degradation, phosphorothioate bonds were introduced between the last 3 nucleotides at the 5′-end of DNA aptamers. The RNA sequences were modified with 2′-fluoro-uridines. […]
molecule,measurement,value
B1,binding to MDA-MB-231 cell line,confirmed the binding; also recorded: nearly identical distribution of KIT expression
